Paper PMC3591335
Like-named read-outs stand apart in the source and are kept apart here.

How the values were obtained:
[1] = target: Cholera toxin B subunit expressed in E. coli (eCTB) (Vibrio cholerae) (UniProt P01556); assay: non-heat-denaturing SDS-PAGE
[2] = target: Cholera toxin B subunit expressed in E. coli (eCTB) (Vibrio cholerae) (UniProt P01556); assay: non-heat-denaturing SDS-PAGE; remark: listed apart in the source

Substance: Cholera toxin B subunit expressed in E. coli (eCTB) (from UniProt P01556 22-124) (natural protein)
- stoichiometry N [1]: 10
- stoichiometry N [2]: 5
